± gives the standard error. Fewer inactive variants are shown than the library holds.
B1: glmS ribozyme (parent)
chain: AUAAAAGCGCCAGAACUACAGAAAUGUAGUUGACGAGGAGGAGGUUUAUCGAAUUUUCGGCGGAUGCCUCCAAA

Assays:
Conditions in all cases: with glucosamine-6-phosphate
glucosamine-6-phosphate [1] = variants of: B1; test: self-cleavage kobs at 160 uM GlcN6P; higher = faster cleavage; RNA array
Procedure, shortened: (§1)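 Barcoded ribozyme variants, transcribed in situ by E. coli RNA polymerase on sequenced MiSeq chips, were followed via a hybridised Cy3 probe at 37 °C. Glucosamine-6-phosphate ranged from 40 μM to 10 mM in HEPES/KCl/Mg(OAc)2 buffer. kobs came from decay fits to per-tile medians, and kcat and KM from weighted Michaelis–Menten fits.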

glucosamine-6-phosphate [2] = variants of: B1; test: self-cleavage kobs at 2500 uM GlcN6P; higher = faster cleavage; RNA array
Procedure, shortened: as §1

glucosamine-6-phosphate [3] = variants of: B1; test: self-cleavage kobs at 640 uM GlcN6P; higher = faster cleavage; RNA array
Procedure, shortened: as §1

glucosamine-6-phosphate [4] = variants of: B1; test: self-cleavage kobs at 10000 uM GlcN6P; higher = faster cleavage; RNA array
Procedure, shortened: as §1

Variant	self-cleavage kobs at 160 uM GlcN6P (glucosamine-6-phosphate [1]) [s⁻¹]	self-cleavage kobs at 2500 uM GlcN6P (glucosamine-6-phosphate [2]) [s⁻¹]	self-cleavage kobs at 640 uM GlcN6P (glucosamine-6-phosphate [3]) [s⁻¹]	self-cleavage kobs at 10000 uM GlcN6P (glucosamine-6-phosphate [4]) [s⁻¹]
A15C A33G G44A U47C G62A	< 1e-05	–	–	–
C8G C16A G35U	< 1e-05	< 1e-05	–	–
G9C G44U	< 1e-05	< 1e-05	< 1e-05	< 1e-05
G7U A12C G41A	< 1e-05	< 1e-05	–	–
C8G A12C A36C G59A	< 1e-05	< 1e-05	–	–
G38A G51C	< 1e-05	–	–	–
A12G C34U G41A	< 1e-05	–	< 1e-05	–
C8U A42G G63A	< 1e-05	< 1e-05	< 1e-05	–
G43A A48C	< 1e-05	–	< 1e-05	< 1e-05
G7U C61U	< 1e-05	–	< 1e-05	< 1e-05
A39C G63C	< 1e-05	< 1e-05	< 1e-05	< 1e-05
U57G C58G A64G	6.2e-05 ± 2.9e-05	4.48e-05 ± 1.9e-05	8.58e-05 ± 3.5e-05	–
U45A U54C	0.00513 ± 0.001	–	0.0141 ± 0.0026	–
A14U U65C U69C	< 1e-05	–	–	–
G7U G13U	< 1e-05	< 1e-05	–	< 1e-05
A36G C50A	< 1e-05	–	< 1e-05	–
A53C G63C	< 1e-05	< 1e-05	–	< 1e-05
U57C G62C	< 1e-05	< 1e-05	< 1e-05	< 1e-05
A42U U47A C70G	< 1e-05	–	< 1e-05	–
G43C C61A	< 1e-05	< 1e-05	< 1e-05	< 1e-05
G7A C58A	< 1e-05	< 1e-05	< 1e-05	–
A52C C58A	< 1e-05	–	< 1e-05	< 1e-05
G32C G44C C58U G59A U65A C71U	< 1e-05	–	–	–
G40C G43U G66U	< 1e-05	< 1e-05	< 1e-05	–
A12U G35C	< 1e-05	–	< 1e-05	< 1e-05

Variant	self-cleavage kobs at 160 uM GlcN6P (glucosamine-6-phosphate [1]) [s⁻¹]	self-cleavage kobs at 2500 uM GlcN6P (glucosamine-6-phosphate [2]) [s⁻¹]	self-cleavage kobs at 640 uM GlcN6P (glucosamine-6-phosphate [3]) [s⁻¹]	self-cleavage kobs at 10000 uM GlcN6P (glucosamine-6-phosphate [4]) [s⁻¹]
C10A C34U U55G	< 1e-05	< 1e-05	–	–
A42U U49A	< 1e-05	< 1e-05	< 1e-05	< 1e-05
C11A C16U G44U A53G C71G	< 1e-05	–	< 1e-05	–
A15G A33U G40U C67G	< 1e-05	< 1e-05	–	–
G13U A33U U57C	< 1e-05	–	< 1e-05	–
A15C G60C C61U	< 1e-05	–	–	–
A14C A36U G38C A39G	< 1e-05	< 1e-05	–	–
C16U A52G C68U	6.54e-05 ± 2.2e-05	0.000422 ± 0.00016	0.000491 ± 0.00012	–
C10U U30C G43U G51U U55C U69C	< 1e-05	< 1e-05	< 1e-05	< 1e-05
A12C G35U G41U	< 1e-05	–	< 1e-05	–
U30A G51A	< 1e-05	–	–	–
G9A C34A	< 1e-05	< 1e-05	< 1e-05	< 1e-05
U54G A64G C68A	5.71e-05 ± 2.2e-05	0.000107 ± 2.7e-05	6.86e-05 ± 1.5e-05	–
C34A G44U A53C U55G	< 1e-05	–	–	–
G44C G59A	< 1e-05	< 1e-05	< 1e-05	< 1e-05
U30C U55A	3.75e-05 ± 1.3e-05	–	9.3e-05 ± 1.6e-05	–
G9U A12G G29A U56A	< 1e-05	< 1e-05	< 1e-05	–
G32C G60U	< 1e-05	< 1e-05	< 1e-05	< 1e-05
C34U G40U C71U	< 1e-05	< 1e-05	–	–
G7U A15G G32A	< 1e-05	–	< 1e-05	–
A33C U46C U56C G59C	< 1e-05	< 1e-05	< 1e-05	–
G44U C50A C68G	< 1e-05	< 1e-05	–	–
G35C G40C U47A G62U	< 1e-05	–	< 1e-05	–
C8A G44C	< 1e-05	< 1e-05	< 1e-05	–
A39C U47A C50A U56C	< 1e-05	< 1e-05	–	–

Variant	self-cleavage kobs at 160 uM GlcN6P (glucosamine-6-phosphate [1]) [s⁻¹]	self-cleavage kobs at 2500 uM GlcN6P (glucosamine-6-phosphate [2]) [s⁻¹]	self-cleavage kobs at 640 uM GlcN6P (glucosamine-6-phosphate [3]) [s⁻¹]	self-cleavage kobs at 10000 uM GlcN6P (glucosamine-6-phosphate [4]) [s⁻¹]
G37A A48G A52G G62A	< 1e-05	–	–	–
C34U U56C G62U C71A	< 1e-05	< 1e-05	–	–
G9A A52U C58U C70G	< 1e-05	–	< 1e-05	–
A36U U54G	< 1e-05	–	–	–
G7A G35U	< 1e-05	–	< 1e-05	< 1e-05
U30C C58U C67G C71A	0.000188 ± 5.3e-05	0.000197 ± 4.3e-05	0.000584 ± 0.00013	–
U30A G41C U49A	< 1e-05	< 1e-05	< 1e-05	< 1e-05
G44U C58U	< 1e-05	< 1e-05	< 1e-05	< 1e-05
C11U A14G A39G G60C	< 1e-05	–	< 1e-05	–
G29U G38C A39U C50A	< 1e-05	–	< 1e-05	–
G9U C16U U57G C68U	< 1e-05	–	< 1e-05	–
A39G G43A A48U G51C	< 1e-05	< 1e-05	< 1e-05	–
G32U C61U	< 1e-05	–	< 1e-05	–
A36G G38U C61U G66U	< 1e-05	–	–	–
U54A U57A U65C	< 1e-05	–	–	–
G9A G37A A42U	< 1e-05	–	< 1e-05	–
G37A A39C U47C C71U	< 1e-05	3.22e-05 ± 1.4e-05	–	–
G7C A14G C61U	< 1e-05	–	–	–
A6C C10A G35A C58G C70G	4.89e-05 ± 2.3e-05	0.000134 ± 4.9e-05	0.000553 ± 0.00014	–
C16G G44C C68U	< 1e-05	< 1e-05	–	–
G43U A53C G62U	< 1e-05	< 1e-05	–	–
C16G A48C G62U	< 1e-05	–	< 1e-05	–
G35A U54G	< 1e-05	< 1e-05	< 1e-05	–
A33U G44C A52U	< 1e-05	< 1e-05	–	–
C10U G29U U57C C67U U69G	6.16e-05 ± 1.7e-05	6.3e-05 ± 2e-05	8.17e-05 ± 1.9e-05	–

Variant	self-cleavage kobs at 160 uM GlcN6P (glucosamine-6-phosphate [1]) [s⁻¹]	self-cleavage kobs at 2500 uM GlcN6P (glucosamine-6-phosphate [2]) [s⁻¹]	self-cleavage kobs at 640 uM GlcN6P (glucosamine-6-phosphate [3]) [s⁻¹]	self-cleavage kobs at 10000 uM GlcN6P (glucosamine-6-phosphate [4]) [s⁻¹]
U31G G35A	< 1e-05	–	< 1e-05	< 1e-05
A36C G44C	< 1e-05	< 1e-05	–	< 1e-05
G35A A42C	< 1e-05	–	< 1e-05	< 1e-05
G35U G37C	< 1e-05	< 1e-05	< 1e-05	–
G44C U54A C68U	< 1e-05	–	–	–
C8G G38A A48U C61U	< 1e-05	–	–	–
A39U A53G C71A	0.000185 ± 3.5e-05	0.00139 ± 0.00042	–	0.00323 ± 0.00089
C11A G29A C34A U57C	< 1e-05	–	< 1e-05	–
C50A G66A C70G	5.52e-05 ± 2.4e-05	0.000169 ± 4.8e-05	0.000243 ± 6.1e-05	–
G13A G35C C71U	< 1e-05	–	< 1e-05	–
C50G U65C	4.48e-05 ± 1.6e-05	4.37e-05 ± 2.1e-05	0.000255 ± 0.0001	–
A6U A14C	< 1e-05	–	–	4.13e-05 ± 7.6e-06
C11G A33U G44U U49A U65G	< 1e-05	< 1e-05	< 1e-05	–
C8A G40C G41C G63U	< 1e-05	–	< 1e-05	–
A36G G44A U55C U65G	< 1e-05	< 1e-05	< 1e-05	–
C8U G35A U49C A64C C71A	< 1e-05	–	–	–
G35A U46G	< 1e-05	< 1e-05	< 1e-05	–
G9U A12C C67U	< 1e-05	< 1e-05	< 1e-05	< 1e-05
A12C A39U U46A C50G	< 1e-05	< 1e-05	< 1e-05	–
G29U A42U A52U C67G	< 1e-05	–	< 1e-05	–
G35A C50A	< 1e-05	< 1e-05	< 1e-05	–
C11U G13U U49G	< 1e-05	< 1e-05	< 1e-05	–
A52C A64C	< 1e-05	–	< 1e-05	< 1e-05
C8U U55A	< 1e-05	< 1e-05	< 1e-05	–
C10G A53C	< 1e-05	< 1e-05	< 1e-05	< 1e-05
